The test has as its target T1, Human PD-L1 (human, UniProt Q9NZQ7 19-290).
T1 construct: whole, on cells; also called target-A
Briefly: flow cytometry on CHO-K1 cells expressing human PD-L1. On the procedure:
Human PD-L1-expressing cells W315-CHOK1.hPro1.C11 (×10^5 cells/well) and 4-1BB-expressing cells WBP342-CHO-K1.hPro1.C1 were incubated with various concentrations of testing antibodies at 4° C. for 1 hour. […] The cells were then washed and resuspended in DPBS with 1% BSA. MFI of the cells was measured by a flow cytometer and analyzed by FlowJo.
As shown in FIG. 7 and Table 7, compared to the reference molecule, the T8311 variants kept the target binding ability very well.
In general terms: A flow cytometer gives signals particle by particle.

T1 sequence (Q9NZQ7 19-290): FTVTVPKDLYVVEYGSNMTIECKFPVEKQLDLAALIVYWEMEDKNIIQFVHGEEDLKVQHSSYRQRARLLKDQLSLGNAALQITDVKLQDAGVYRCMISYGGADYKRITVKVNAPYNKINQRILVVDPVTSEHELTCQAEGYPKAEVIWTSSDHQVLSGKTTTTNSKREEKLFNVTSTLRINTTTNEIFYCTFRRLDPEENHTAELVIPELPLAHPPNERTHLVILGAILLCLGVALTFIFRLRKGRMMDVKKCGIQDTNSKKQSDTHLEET

B1: T8311-U14T2.G25R-1.uIgG1 (bispecific antibody)
heavy: not shown
light 1: SYELTQPPSVSVSPGQTASITCSGSELPKRYAYWYQQKPGQSIVRVIYKDSERPSGISERFSGSSSGNTATLTISGTQAMDEADYYCSSTYGDRKLPIFGGGTKLTVLGQPKAAPSVTLFPPSSEELQANKATLVCLISDFYPGAVTVAWKADSSPVKAGVETTTPSKQSNNKYAASSYLSLTPEQWKSHKSYSCQVTHEGSTVEKTVAPTECS
light 2: SYVLTQPPSVSVAPGQTARMTCGGDNIGIKIVHWYQQKAGQAPVLVVYDDNDRPSGIPDRFSGSNSGNTATLTISRVAAGDEADYYCQVWDRRSDHVVFGGGTKLTVLPDIQNPDPAVYQLRDSKSSDKSVCLFTDFDSQTQVSQSKDSDVYITDKCVLDMRSMDFKSNSAVAWSQKSDFACANAFQNSIIPEDTFFPSPESS
notes: Symmetric 2+2 format G25R, human IgG1 Fc; PD-L1 x 4-1BB; also called T8311-1
In general, EC50 refers to the concentration that produces a half-maximal response. Read a low EC50 as an effect from little substance. As to B1, a half-maximal response (EC50) required 0.184 nM and the “Top (MFI)” value amounted to 8330 MFI.

B2: T8311-U14T2.G25R-47.uIgG1 (bispecific antibody)
heavy: not shown
light 1: SYELTQPPSVSVSPGQTASITCSGSELPKRYAYWYQQKPGQSIVRVIYKDSERPSGISERFSGSSSGNTATLTISGTQAMDEADYYCSSTYGDRKLPIFGGGTKLTVLGQPKAAPSVTLFPPSSEELQANKATLVCLISDFYPGAVTVAWKADSSPVKAGVETTTPSKQSNNKYAASSYLSLTPEQWKSHKSYSCQVTHEGSTVEKTVAPTECS
light 2: SYVLTQPPSVSVAPGQTARMTCGGDNIGIKIVHWYQQKAGQAPVLVVYDDNDRPSGIPDRFSGSNSGNTATLTISRVAAGDEADYYCQVWDRRSDHVVFGGGTKLTVLPDIQNPDPAVYQLRDSKSSDKSVCLFTDFDSQTQVCQSKDSDVYITDKCVLDMRSMDFKSNSAVAWSQKSDFACANAFQCSIIPEDTFFPS
notes: also called T8311-47
Turning to B2, it took 0.186 nM to reach a half-maximal effect (EC50) and the “Top (MFI)” value is 8110 MFI.

B3: T8311-U14T2.G25R-59.uIgG1 (bispecific antibody)
heavy: not shown
light 1: SYELTQPPSVSVSPGQTASITCSGSELPKRYAYWYQQKPGQSIVRVIYKDSERPSGISERFSGSSSGNTATLTISGTQAMDEADYYCSSTYGDRKLPIFGGGTKLTVLGQPKAAPSVTLFPPSSEELQANKATLVCLISDFYPGAVTVAWKADSSPVKAGVETTTPSKQSNNKYAASSYLSLTPEQWKSHKSYSCQVTHEGSTVEKTVAPTECS
light 2: SYVLTQPPSVSVAPGQTARMTCGGDNIGIKIVHWYQQKAGQAPVLVVYDDNDRPSGIPDRFSGSNSGNTATLTISRVAAGDEADYYCQVWDRRSDHVVFGGGTKLTVLPDIQNPDPCVYQLRDSKSSDKSVCLFTDFDSQTQVSQSKDSDVYITDKCVLDMRSMDFKSNSAVAWSQKSDFACANAFQNSIIPEDTCFPS
notes: also called T8311-59
For the molecule B3, the midpoint of the response, the EC50, lay at 0.215 nM and the “Top (MFI)” value is 7860 MFI.

B4: T8311-U14T2.G25R-58.uIgG1 (bispecific antibody)
heavy: not shown
light 1: SYELTQPPSVSVSPGQTASITCSGSELPKRYAYWYQQKPGQSIVRVIYKDSERPSGISERFSGSSSGNTATLTISGTQAMDEADYYCSSTYGDRKLPIFGGGTKLTVLGQPKAAPSVTLFPPSSEELQANKATLVCLISDFYPGAVTVAWKADSSPVKAGVETTTPSKQSNNKYAASSYLSLTPEQWKSHKSYSCQVTHEGSTVEKTVAPTECS
light 2: SYVLTQPPSVSVAPGQTARMTCGGDNIGIKIVHWYQQKAGQAPVLVVYDDNDRPSGIPDRFSGSNSGNTATLTISRVAAGDEADYYCQVWDRRSDHVVFGGGTKLTVLPDIQNPDCAVYQLRDSKSSDKSVCLFTDFDSQTQVSQSKDSDVYITDKCVLDMRSMDFKSNSAVAWSQKSDFACANAFQNSIIPEDCFFPS
notes: also called T8311-58
In the case of B4, the response was half-maximal at 0.19 nM (EC50) and the “Top (MFI)” value was 7990 MFI.

B5: T8311-U14T2.G25R-52.uIgG1 (bispecific antibody)
heavy: not shown
light 1: SYELTQPPSVSVSPGQTASITCSGSELPKRYAYWYQQKPGQSIVRVIYKDSERPSGISERFSGSSSGNTATLTISGTQAMDEADYYCSSTYGDRKLPIFGGGTKLTVLGQPKAAPSVTLFPPSSEELQANKATLVCLISDFYPGAVTVAWKADSSPVKAGVETTTPSKQSNNKYAASSYLSLTPEQWKSHKSYSCQVTHEGSTVEKTVAPTECS
light 2: SYVLTQPPSVSVAPGQTARMTCGGDNIGIKIVHWYQQKAGQAPVLVVYDDNDRPSGIPDRFSGSNSGNTATLTISRVAAGDEADYYCQVWDRRSDHVVFGGGTKLTVLPDIQNPDPAVYQLRDSKSSDKSVCLFTDFDSQTQVCQSKDSDVYITDKCVLDMRSMDFKSNSAVAWSQKSDFACANAFQNCIIPEDTFFPS
notes: also called T8311-52
With B5, the concentration giving a half-maximal response (EC50) stood at 0.187 nM and the “Top (MFI)” value turned out to be 8060 MFI.

B6: T8311-U14T2.G25R-50.uIgG1 (bispecific antibody)
heavy: not shown
light 1: SYELTQPPSVSVSPGQTASITCSGSELPKRYAYWYQQKPGQSIVRVIYKDSERPSGISERFSGSSSGNTATLTISGTQAMDEADYYCSSTYGDRKLPIFGGGTKLTVLGQPKAAPSVTLFPPSSEELQANKATLVCLISDFYPGAVTVAWKADSSPVKAGVETTTPSKQSNNKYAASSYLSLTPEQWKSHKSYSCQVTHEGSTVEKTVAPTECS
light 2: SYVLTQPPSVSVAPGQTARMTCGGDNIGIKIVHWYQQKAGQAPVLVVYDDNDRPSGIPDRFSGSNSGNTATLTISRVAAGDEADYYCQVWDRRSDHVVFGGGTKLTVLPDIQNPDPAVYQLRDSKSSDKSVCLFTDFDSQTCVSQSKDSDVYITDKCVLDMRSMDFKSNSAVAWSQKSDFACANAFQNCIIPEDTFFPS
notes: also called T8311-50
Regarding B6, the EC50 turned out to be 0.256 nM and the “Top (MFI)” value was 8130 MFI.

B7: T8311-U14T2.G25R-51.uIgG1 (bispecific antibody)
heavy: not shown
light 1: SYELTQPPSVSVSPGQTASITCSGSELPKRYAYWYQQKPGQSIVRVIYKDSERPSGISERFSGSSSGNTATLTISGTQAMDEADYYCSSTYGDRKLPIFGGGTKLTVLGQPKAAPSVTLFPPSSEELQANKATLVCLISDFYPGAVTVAWKADSSPVKAGVETTTPSKQSNNKYAASSYLSLTPEQWKSHKSYSCQVTHEGSTVEKTVAPTECS
light 2: SYVLTQPPSVSVAPGQTARMTCGGDNIGIKIVHWYQQKAGQAPVLVVYDDNDRPSGIPDRFSGSNSGNTATLTISRVAAGDEADYYCQVWDRRSDHVVFGGGTKLTVLPDIQNPDPAVYQLRDSKSSDKSVCLFTDFDSQTQCSQSKDSDVYITDKCVLDMRSMDFKSNSAVAWSQKSDFACANAFQNCIIPEDTFFPS
notes: also called T8311-51
In the case of B7, the EC50 worked out at 0.213 nM and the “Top (MFI)” value amounted to 8120 MFI.

B8: T8311-U14T2.G25R-49.uIgG1 (bispecific antibody)
heavy: not shown
light 1: SYELTQPPSVSVSPGQTASITCSGSELPKRYAYWYQQKPGQSIVRVIYKDSERPSGISERFSGSSSGNTATLTISGTQAMDEADYYCSSTYGDRKLPIFGGGTKLTVLGQPKAAPSVTLFPPSSEELQANKATLVCLISDFYPGAVTVAWKADSSPVKAGVETTTPSKQSNNKYAASSYLSLTPEQWKSHKSYSCQVTHEGSTVEKTVAPTECS
light 2: SYVLTQPPSVSVAPGQTARMTCGGDNIGIKIVHWYQQKAGQAPVLVVYDDNDRPSGIPDRFSGSNSGNTATLTISRVAAGDEADYYCQVWDRRSDHVVFGGGTKLTVLPDIQNPDPAVYQLRDSKSSDKSVCLFTDFDSQTQVSQSCDSDVYITDKCVLDMRSMDFKSNSAVAWSQKSDFACANAFQCSIIPEDTFFPS
notes: also called T8311-49
For B8, a half-maximal effect (EC50) was put at 0.153 nM and the “Top (MFI)” value was 8130 MFI.

B9: T8311-U14T2.G25R-48.uIgG1 (bispecific antibody)
heavy: not shown
light 1: SYELTQPPSVSVSPGQTASITCSGSELPKRYAYWYQQKPGQSIVRVIYKDSERPSGISERFSGSSSGNTATLTISGTQAMDEADYYCSSTYGDRKLPIFGGGTKLTVLGQPKAAPSVTLFPPSSEELQANKATLVCLISDFYPGAVTVAWKADSSPVKAGVETTTPSKQSNNKYAASSYLSLTPEQWKSHKSYSCQVTHEGSTVEKTVAPTECS
light 2: SYVLTQPPSVSVAPGQTARMTCGGDNIGIKIVHWYQQKAGQAPVLVVYDDNDRPSGIPDRFSGSNSGNTATLTISRVAAGDEADYYCQVWDRRSDHVVFGGGTKLTVLPDIQNPDPAVYQLRDSKSSDKSVCLFTDFDSQTQVSQCKDSDVYITDKCVLDMRSMDFKSNSAVAWSQKSDFACANAFQCSIIPEDTFFPS
notes: also called T8311-48
On to B9, for which the response was half-maximal at 0.205 nM (EC50) and the “Top (MFI)” value was 8120 MFI.

B10: T8311-U14T2.G25R-53.uIgG1 (bispecific antibody)
heavy: not shown
light 1: SYELTQPPSVSVSPGQTASITCSGSELPKRYAYWYQQKPGQSIVRVIYKDSERPSGISERFSGSSSGNTATLTISGTQAMDEADYYCSSTYGDRKLPIFGGGTKLTVLGQPKAAPSVTLFPPSSEELQANKATLVCLISDFYPGAVTVAWKADSSPVKAGVETTTPSKQSNNKYAASSYLSLTPEQWKSHKSYSCQVTHEGSTVEKTVAPTECS
light 2: SYVLTQPPSVSVAPGQTARMTCGGDNIGIKIVHWYQQKAGQAPVLVVYDDNDRPSGIPDRFSGSNSGNTATLTISRVAAGDEADYYCQVWDRRSDHVVFGGGTKLTVLPDIQNPDPAVYQLRDSKSSDKSVCLFTDFDSQTCVSQSKDSDVYITDKCVLDMRSMDFKSNSAVAWSQKSDFACANAFQNSCIPEDTFFPS
notes: also called T8311-53
As for B10, it took 0.22 nM to reach a half-maximal effect (EC50) and the “Top (MFI)” value worked out at 8150 MFI.

B11: T8311-U14T2.G25R-56.uIgG1 (bispecific antibody)
heavy: not shown
light 1: SYELTQPPSVSVSPGQTASITCSGSELPKRYAYWYQQKPGQSIVRVIYKDSERPSGISERFSGSSSGNTATLTISGTQAMDEADYYCSSTYGDRKLPIFGGGTKLTVLGQPKAAPSVTLFPPSSEELQANKATLVCLISDFYPGAVTVAWKADSSPVKAGVETTTPSKQSNNKYAASSYLSLTPEQWKSHKSYSCQVTHEGSTVEKTVAPTECS
light 2: SYVLTQPPSVSVAPGQTARMTCGGDNIGIKIVHWYQQKAGQAPVLVVYDDNDRPSGIPDRFSGSNSGNTATLTISRVAAGDEADYYCQVWDRRSDHVVFGGGTKLTVLPDIQNPDPAVYQLRDSKSSDKSVCLFTDFDSQCQVSQSKDSDVYITDKCVLDMRSMDFKSNSAVAWSQKSDFACANAFQNSIICEDTFFPS
notes: also called T8311-56
As to B11, the concentration for a half-maximal effect (EC50) is 0.192 nM and the “Top (MFI)” value amounted to 8240 MFI.

B12: T8311-U14T2.G25R-57.uIgG1 (bispecific antibody)
heavy: not shown
light 1: SYELTQPPSVSVSPGQTASITCSGSELPKRYAYWYQQKPGQSIVRVIYKDSERPSGISERFSGSSSGNTATLTISGTQAMDEADYYCSSTYGDRKLPIFGGGTKLTVLGQPKAAPSVTLFPPSSEELQANKATLVCLISDFYPGAVTVAWKADSSPVKAGVETTTPSKQSNNKYAASSYLSLTPEQWKSHKSYSCQVTHEGSTVEKTVAPTECS
light 2: SYVLTQPPSVSVAPGQTARMTCGGDNIGIKIVHWYQQKAGQAPVLVVYDDNDRPSGIPDRFSGSNSGNTATLTISRVAAGDEADYYCQVWDRRSDHVVFGGGTKLTVLPDIQNPDCAVYQLRDSKSSDKSVCLFTDFDSQTQVSQSKDSDVYITDKCVLDMRSMDFKSNSAVAWSQKSDFACANAFQNSIIPECTFFPS
notes: also called T8311-57; design 57
On to B12, for which the 50% effective concentration (EC50) is 0.177 nM and the “Top (MFI)” value was determined as 8150 MFI.

Source of the values: patent US20240317872A1 (WUXI BIOLOGICS IRELAND, published 2024).
